Measurements published in IntAct's records for PubMed 29892012.

B1: Coiled-coil alpha-helical rod protein 1 (Homo sapiens), Q8TD31 (parent)
chain: MFPPSGSTGLIPPSHFQARPLSTLPRMAPTWLSDIPLVQPPGHQDVSERRLDTQRPQVTMWERDVSSDRQEPGRRGRSWGLEGSQALSQQAEVIVRQLQELRRLEEEVRLLRETSLQQKMRLEAQAMELEALARAEKAGRAEAEGLRAALAGAEVVRKNLEEGSQRELEEVQRLHQEQLSSLTQAHEEALSSLTSKAEGLEKSLSSLETRRAGEAKELAEAQREAELLRKQLSKTQEDLEAQVTLVENLRKYVGEQVPSEVHSQTWELERQKLLETMQHLQEDRDSLHATAELLQVRVQSLTHILALQEEELTRKVQPSDSLEPEFTRKCQSLLNRWREKVFALMVQLKAQELEHSDSVKQLKGQVASLQEKVTSQSQEQAILQRSLQDKAAEVEVERMGAKGLQLELSRAQEARRRWQQQTASAEEQLRLVVNAVSSSQIWLETTMAKVEGAAAQLPSLNNRLSYAVRKVHTIRGLIARKLALAQLRQESCPLPPPVTDVSLELQQLREERNRLDAELQLSARLIQQEVGRAREQGEAERQQLSKVAQQLEQELQQTQESLASLGLQLEVARQGQQESTEEAASLRQELTQQQELYGQALQEKVAEVETRLREQLSDTERRLNEARREHAKAVVSLRQIQRRAAQEKERSQELRRLQEEARKEEGQRLARRLQELERDKNLMLATLQQEGLLSRYKQQRLLTVLPSLLDKKKSVVSSPRPPECSASAPVAAAVPTRESIKGSLSVLLDDLQDLSEAISKEEAVCQGDNLDRCSSSNPQMSS
partner: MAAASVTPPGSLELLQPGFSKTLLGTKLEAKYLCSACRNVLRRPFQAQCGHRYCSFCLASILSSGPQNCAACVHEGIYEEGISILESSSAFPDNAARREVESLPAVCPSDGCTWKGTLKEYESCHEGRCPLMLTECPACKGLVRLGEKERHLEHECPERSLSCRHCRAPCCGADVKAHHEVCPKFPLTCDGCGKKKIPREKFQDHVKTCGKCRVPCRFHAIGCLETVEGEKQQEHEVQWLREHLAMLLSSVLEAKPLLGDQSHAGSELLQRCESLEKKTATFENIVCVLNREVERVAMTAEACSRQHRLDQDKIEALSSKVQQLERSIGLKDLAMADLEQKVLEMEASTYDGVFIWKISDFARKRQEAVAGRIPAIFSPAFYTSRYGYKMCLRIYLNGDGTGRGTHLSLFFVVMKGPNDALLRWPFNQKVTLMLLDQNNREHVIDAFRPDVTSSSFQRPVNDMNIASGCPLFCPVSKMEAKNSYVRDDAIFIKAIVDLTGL
B2: Small glutamine-rich tetratricopeptide repeat-containing protein beta (Homo sapiens), Q96EQ0 (parent)
chain: MSSIKHLVYAVIRFLREQSQMDTYTSDEQESLEVAIQCLETVFKISPEDTHLAVSQPLTEMFTSSFCKNDVLPLSNSVPEDVGKADQLKDEGNNHMKEENYAAAVDCYTQAIELDPNNAVYYCNRAAAQSKLGHYTDAIKDCEKAIAIDSKYSKAYGRMGLALTALNKFEEAVTSYQKALDLDPENDSYKSNLKIAEQKLREVSSPTGTGLSFDMASLINNPAFISMAASLMQNPQVQQLMSGMMTNAIGGPAAGVGGLTDLSSLIQAGQQFAQQIQQQNPELIEQLRNHIRSRSFSSSAEEHS
partner: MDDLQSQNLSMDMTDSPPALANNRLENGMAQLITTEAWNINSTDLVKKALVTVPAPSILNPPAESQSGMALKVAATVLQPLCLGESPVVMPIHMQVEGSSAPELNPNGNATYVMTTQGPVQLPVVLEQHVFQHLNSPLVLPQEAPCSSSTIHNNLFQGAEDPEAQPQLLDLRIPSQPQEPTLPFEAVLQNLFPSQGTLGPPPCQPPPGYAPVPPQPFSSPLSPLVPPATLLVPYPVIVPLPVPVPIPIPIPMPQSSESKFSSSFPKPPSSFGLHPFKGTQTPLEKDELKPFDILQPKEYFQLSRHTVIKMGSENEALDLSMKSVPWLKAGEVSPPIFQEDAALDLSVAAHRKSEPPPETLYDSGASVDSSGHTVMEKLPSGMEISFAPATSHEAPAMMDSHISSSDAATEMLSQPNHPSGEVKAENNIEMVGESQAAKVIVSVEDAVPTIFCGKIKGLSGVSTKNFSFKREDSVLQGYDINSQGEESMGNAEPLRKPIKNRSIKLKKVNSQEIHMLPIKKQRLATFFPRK
B3: E3 ubiquitin-protein ligase LNX (Homo sapiens), Q8TBB1 (parent)
chain: MNQPESANDPEPLCAVCGQAHSLEENHFYSYPEEVDDDLICHICLQALLDPLDTPCGHTYCTLCLTNFLVEKDFCPMDRKPLVLQHCKKSSILVNKLLNKLLVTCPFREHCTQVLQRCDLEHHFQTSCKGASHYGLTKDRKRRSQDGCPDGCASLTATAPSPEVSAAATISLMTDEPGLDNPAYVSSAEDGQPAISPVDSGRSNRTRARPFERSTIRSRSFKKINRALSVLRRTKSGSAVANHADQGRENSENTTAPEVFPRLYHLIPDGEITSIKINRVDPSESLSIRLVGGSETPLVHIIIQHIYRDGVIARDGRLLPGDIILKVNGMDISNVPHNYAVRLLRQPCQVLWLTVMREQKFRSRNNGQAPDAYRPRDDSFHVILNKSSPEEQLGIKLVRKVDEPGVFIFNVLDGGVAYRHGQLEENDRVLAINGHDLRYGSPESAAHLIQASERRVHLVVSRQVRQRSPDIFQEAGWNSNGSWSPGPGERSNTPKPLHPTITCHEKVVNIQKDPGESLGMTVAGGASHREWDLPIYVISVEPGGVISRDGRIKTGDILLNVDGVELTEVSRSEAVALLKRTSSSIVLKALEVKEYEPQEDCSSPAALDSNHNMAPPSDWSPSWVMWLELPRCLYNCKDIVLRRNTAGSLGFCIVGGYEEYNGNKPFFIKSIVEGTPAYNDGRIRCGDILLAVNGRSTSGMIHACLARLLKELKGRITLTIVSWPGTFL
partner: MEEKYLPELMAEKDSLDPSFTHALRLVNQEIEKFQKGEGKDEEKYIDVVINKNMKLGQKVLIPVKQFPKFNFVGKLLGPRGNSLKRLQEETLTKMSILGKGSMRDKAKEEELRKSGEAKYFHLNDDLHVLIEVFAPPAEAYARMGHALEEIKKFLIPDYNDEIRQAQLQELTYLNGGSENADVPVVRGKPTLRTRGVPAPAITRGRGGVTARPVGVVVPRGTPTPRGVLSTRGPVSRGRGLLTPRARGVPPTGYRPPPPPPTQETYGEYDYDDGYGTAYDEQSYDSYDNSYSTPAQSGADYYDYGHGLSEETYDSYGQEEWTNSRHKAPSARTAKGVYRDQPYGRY
B4: Chorion-specific transcription factor GCMb (Homo sapiens), O75603 (parent)
chain: MPAAAVQEAVGVCSYGMQLSWDINDPQMPQELALFDQFREWPDGYVRFIYSSDEKKAQRHLSGWAMRNTNNHNGHILKKSCLGVVVCTQACTLPDGSRLQLRPAICDKARLKQQKKACPNCHSALELIPCRGHSGYPVTNFWRLDGNAIFFQAKGVHDHPRPESKSETEARRSAIKRQMASFYQPQKKRIRESEAEENQDSSGHFSNIPPLENPEDFDIVTETSFPIPGQPCPSFPKSDVYKATCDLATFQGDKMPPFQKYSSPRIYLPRPPCSYELANPGYTNSSPYPTLYKDSTSIPNDTDWVHLNTLQCNVNSYSSYERSFDFTNKQHGWKPALGKPSLVERTNHGQFQAMATRPYYNPELPCRYLTTPPPGAPALQTVITTTTKVSYQAYQPPAMKYSDSVREVKSLSSCNYAPEDTGMSVYPEPWGPPVTVTRAASPSGPPPMKIAGDCRAIRPTVAIPHEPVSSRTDEAETWDVCLSGLGSAVSYSDRVGPFFTYNNEDF
B5: Coiled-coil alpha-helical rod protein 1 (Homo sapiens), Q8TD31 (parent)
chain: B1 chain
partner: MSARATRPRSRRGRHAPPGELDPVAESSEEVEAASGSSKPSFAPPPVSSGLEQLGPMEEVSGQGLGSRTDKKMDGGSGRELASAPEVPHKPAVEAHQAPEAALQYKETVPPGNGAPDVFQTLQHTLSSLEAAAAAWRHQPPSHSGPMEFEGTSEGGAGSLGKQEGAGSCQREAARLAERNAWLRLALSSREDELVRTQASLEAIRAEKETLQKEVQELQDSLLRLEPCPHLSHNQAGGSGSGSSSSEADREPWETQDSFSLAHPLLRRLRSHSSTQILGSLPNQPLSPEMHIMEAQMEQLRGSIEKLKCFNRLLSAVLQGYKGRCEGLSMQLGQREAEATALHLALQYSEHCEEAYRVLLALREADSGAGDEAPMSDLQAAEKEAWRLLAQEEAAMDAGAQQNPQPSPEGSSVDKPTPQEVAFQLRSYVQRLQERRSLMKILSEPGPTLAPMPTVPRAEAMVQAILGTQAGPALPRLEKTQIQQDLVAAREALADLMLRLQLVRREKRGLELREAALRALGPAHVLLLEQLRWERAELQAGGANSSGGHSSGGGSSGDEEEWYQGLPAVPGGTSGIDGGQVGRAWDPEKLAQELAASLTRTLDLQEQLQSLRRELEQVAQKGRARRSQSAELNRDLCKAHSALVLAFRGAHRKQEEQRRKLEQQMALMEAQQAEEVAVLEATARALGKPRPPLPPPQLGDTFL

Variants of: B1
Conditions: with traf2_human TRAF2, Q12933

Row | Variant | effect of a mutation on the interaction
1 | W337R | disrupting interaction strength

Variants of: B2
Conditions: with rai2_human RAI2, Q9Y5P3

Row | Variant | effect of a mutation on the interaction
2 | R292W | with no effect

Variants of: B3
Conditions: with khdr3_human KHDRBS3, O75525

Row | Variant | effect of a mutation on the interaction
3 | E295K | disrupting interaction strength

Variants of: B4
Conditions: with crx_human CRX

Row | Variant | effect of a mutation on the interaction
4 | G349E | with no effect

Variants of: B4
Conditions: with rbpms_human RBPMS

Row | Variant | effect of a mutation on the interaction
5 | G349E | with no effect

Variants of: B5
Conditions: with usbp1_human USHBP1, Q8N6Y0

Row | Variant | effect of a mutation on the interaction
6 | W337R | disrupting interaction strength
